Results reported in doi:10.1101/2024.02.21.581378 (bioRxiv, 2024).
Residue numbers refer to the chain shown, from its start. Names and notes keep the numbering of the source.

Experiments:
[1] = molecular target: macaque TMPRSS2 N469Y on transfected 293T cells (macaque)
[2] = molecular target: cleaved soluble TMPRSS2^S441A (TMPRSS2^S441A-Cl) (human, UniProt O15393 107-255; O15393 256-492, S441A); assay: BLI
[3] = molecular target: T1, TMPRSS2^S441A (human TMPRSS2 residues 107-492, zymogen, uncleaved) (human, UniProt O15393 107-492, S441A); assay: BLI
[4] = molecular target: T1, TMPRSS2^S441A (human TMPRSS2 residues …); assay: crystal structure

T1 sequence (O15393 107-492 S441A): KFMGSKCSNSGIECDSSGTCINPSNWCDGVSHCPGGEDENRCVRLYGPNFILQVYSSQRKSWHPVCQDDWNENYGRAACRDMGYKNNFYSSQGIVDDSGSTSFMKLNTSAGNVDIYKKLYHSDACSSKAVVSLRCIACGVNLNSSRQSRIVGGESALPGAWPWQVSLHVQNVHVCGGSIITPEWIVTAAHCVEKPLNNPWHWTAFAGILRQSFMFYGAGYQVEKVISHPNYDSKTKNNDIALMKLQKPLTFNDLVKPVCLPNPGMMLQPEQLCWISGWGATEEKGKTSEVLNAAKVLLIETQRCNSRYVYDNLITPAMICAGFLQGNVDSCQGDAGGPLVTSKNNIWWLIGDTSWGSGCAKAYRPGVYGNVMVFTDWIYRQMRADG
cleaved soluble TMPRSS2^S441A (TMPRSS2^S441A-Cl), sequence (O15393 107-255, chain 1 of 2): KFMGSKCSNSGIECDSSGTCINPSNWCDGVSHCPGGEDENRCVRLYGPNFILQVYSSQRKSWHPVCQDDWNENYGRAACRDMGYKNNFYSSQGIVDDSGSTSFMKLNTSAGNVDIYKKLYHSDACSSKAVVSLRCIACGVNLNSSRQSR
cleaved soluble TMPRSS2^S441A (TMPRSS2^S441A-Cl), sequence (O15393 256-492 S441A, chain 2 of 2): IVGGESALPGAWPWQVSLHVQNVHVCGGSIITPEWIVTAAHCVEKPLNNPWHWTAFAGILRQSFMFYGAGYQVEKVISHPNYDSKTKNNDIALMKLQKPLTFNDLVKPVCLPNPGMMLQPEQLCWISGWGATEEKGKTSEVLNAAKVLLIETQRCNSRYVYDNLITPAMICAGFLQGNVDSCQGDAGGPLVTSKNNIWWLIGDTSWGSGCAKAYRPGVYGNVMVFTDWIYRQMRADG

soluble biotinylated HKU1B spike (from UniProt Q0ZME7) (natural protein)
entry of HKU1B pseudoviruses, fold increase against wild-type macaque TMPRSS2 [1]: 10 fold

B1: HKU1B RBD (residues 330-614 of the spike protein), wild type (domain or fragment)
chain: DNWLNNVSVPSPLNWERRIFSNCNFNLSTLLRLVHVDSFSCNNLDKSKIFGSCFNSITVDKFAIPNRRRDDLQLGSSGFLQSSNYKIDISSSSCQLYYSLPLVNVTINNFNPSSWNRRYGFGSFNLSSYDVVYSDHCFSVNSDFCPCADPSVVNSCAKSKPPSAICPAGTKYRHCDLDTTLYVKNWCRCSCLPDPISTYSPNTCPQKKVVVGIGEHCPGLGINEEKCGTQLNHSSCFCSPDAFLGWSFDSCISNNRCNIFSNFIFNGINSGTTCSNDLLYSNTEI
Kd [2]: 30 nM

B2: HKU1B RBD (residues 330-614) Y528A (domain or fragment)
chain: B1 chain with Y199A
binding result [2]: binds | binding result [3]: binds

B3: HKU1B RBD (residues 330-614) L510R (domain or fragment)
chain: B1 chain with L181R
binding result [2]: binds | binding result [3]: binds

B4: HKU1B RBD (residues 330-614) S529A (domain or fragment)
chain: B1 chain with S200A
binding result [2]: binds

B5: HKU1B RBD (residues 330-614) K487A (domain or fragment)
chain: B1 chain with K158A
binding result [2]: binds | binding result [3]: binds

B6: HKU1B RBD and subdomain-1 (RBD-SD1, residues 307-675 of the spike protein) (domain or fragment)
chain: SGFTVKPVATVYRRIPNLPDCDIDNWLNNVSVPSPLNWERRIFSNCNFNLSTLLRLVHVDSFSCNNLDKSKIFGSCFNSITVDKFAIPNRRRDDLQLGSSGFLQSSNYKIDISSSSCQLYYSLPLVNVTINNFNPSSWNRRYGFGSFNLSSYDVVYSDHCFSVNSDFCPCADPSVVNSCAKSKPPSAICPAGTKYRHCDLDTTLYVKNWCRCSCLPDPISTYSPNTCPQKKVVVGIGEHCPGLGINEEKCGTQLNHSSCFCSPDAFLGWSFDSCISNNRCNIFSNFIFNGINSGTTCSNDLLYSNTEISTGVCVNYDLYGITGQGIFKEVSAAYYNNWQNLLYDSNGNIIGFKDFLTNKTYTILPCYSG
binding result [4]: binds
